Data: PMC8913689

Target: HA-metabotropic glutamate receptor 3, Q14832
Assay: AFM single-molecule force spectroscopy (AFM-SMFS); living WTT-CHO cells transfected with 1 µg of HA-GPCR vector, basal state, 37 °C; anti-HA antibody on the AFM tip pulls the HA-receptor out of the membrane; unfolding distances fitted by a Gaussian mixture (BIC) and each population assigned to an oligomeric state by the receptor's theoretical …
Conditions: remark: other sources report otherwise

stoichiometry N: 2
B1: HA-metabotropic glutamate receptor 3, Q14832 23-879 (receptor)
chain: LGDHNFLRREIKIEGDLVLGGLFPINEKGTGTEECGRINEDRGIQRLEAMLFAIDEINKDDYLLPGVKLGVHILDTCSRDTYALEQSLEFVRASLTKVDEAEYMCPDGSYAIQENIPLLIAGVIGGSYSSVSIQVANLLRLFQIPQISYASTSAKLSDKSRYDYFARTVPPDFYQAKAMAEILRFFNWTYVSTVASEGDYGETGIEAFEQEARLRNICIATAEKVGRSNIRKSYDSVIRELLQKPNARVVVLFMRSDDSRELIAAASRANASFTWVASDGWGAQESIIKGSEHVAYGAITLELASQPVRQFDRYFQSLNPYNNHRNPWFRDFWEQKFQCSLQNKRNHRRVCDKHLAIDSSNYEQESKIMFVVNAVYAMAHALHKMQRTLCPNTTKLCDAMKILDGKKLYKDYLLKINFTAPFNPNKDADSIVKFDTFGDGMGRYNVFNFQNVGGKYSYLKVGHWAETLSLDVNSIHWSRNSVPTSQCSDPCAPNEMKNMQPGDVCCWICIPCEPYEYLADEFTCMDCGSGQWPTADLTGCYDLPEDYIRWEDAWAIGPVTIACLGFMCTCMVVTVFIKHNNTPLVKASGRELCYILLFGVGLSYCMTFFFIAKPSPVICALRRLGLGSSFAICYSALLTKTNCIARIFDGVKNGAQRPKFISPSSQVFICLGLILVQIVMVSVWLILEAPGTRRYTLAEKRETVILKCNVKDSSMLISLTYDVILVILCTVYAFKTRKCPENFNEAKFIGFTMYTTCIIWLAFLPIFYVTSSDYRVQTTTMCISVSLSGFVVLGCLFAPKVHIILFQPQKNVVTHRLHLNRFSVSGTGTTYSQSSASTYVPTVCNGREVLDSTTSSL
